Assay [1] concerns the target two domain VCAM-1/Fc with substitution at residue 40 (UniProt P19320). The experiment in a line: adhesion of αdβ2 CHO cells to immobilized mutant VCAM-1/Fc.
The target in assay [2] is LFA-1 leucine zipper fusion protein (soluble CD11a/CD18) (UniProt P20701). Nature of the assay: ELISA as printed: αd/CD18 and immobilized CD11a/CD18.
A further assay addresses immobilized CD11b/CD18 (UniProt P05107). The experiment in a line: ELISA as printed: αd/CD18 and immobilized CD11b/CD18.
Assay [3] addresses soluble ICAM-R/IgG1 fusion protein (UniProt P32942). Nature of the assay: ELISA, soluble integrin supernatant on immobilized ICAM-R/Ig, non-blocking antibody detection.
Assay [4] has as its target recombinant VCAM-1 (commercial preparation, R & D Systems), immobilized (UniProt P19320). Nature of the assay: cell-based or functional assay.

Sequence of two domain VCAM-1/Fc with substitution at residue 40 (P19320 25-220): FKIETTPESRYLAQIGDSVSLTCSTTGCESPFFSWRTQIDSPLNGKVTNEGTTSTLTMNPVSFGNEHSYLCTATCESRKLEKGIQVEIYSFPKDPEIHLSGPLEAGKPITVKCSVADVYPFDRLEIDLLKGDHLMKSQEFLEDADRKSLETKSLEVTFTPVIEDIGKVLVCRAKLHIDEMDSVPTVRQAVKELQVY
Sequence of soluble ICAM-R/IgG1 fusion protein (P32942 30-485 limits assumed): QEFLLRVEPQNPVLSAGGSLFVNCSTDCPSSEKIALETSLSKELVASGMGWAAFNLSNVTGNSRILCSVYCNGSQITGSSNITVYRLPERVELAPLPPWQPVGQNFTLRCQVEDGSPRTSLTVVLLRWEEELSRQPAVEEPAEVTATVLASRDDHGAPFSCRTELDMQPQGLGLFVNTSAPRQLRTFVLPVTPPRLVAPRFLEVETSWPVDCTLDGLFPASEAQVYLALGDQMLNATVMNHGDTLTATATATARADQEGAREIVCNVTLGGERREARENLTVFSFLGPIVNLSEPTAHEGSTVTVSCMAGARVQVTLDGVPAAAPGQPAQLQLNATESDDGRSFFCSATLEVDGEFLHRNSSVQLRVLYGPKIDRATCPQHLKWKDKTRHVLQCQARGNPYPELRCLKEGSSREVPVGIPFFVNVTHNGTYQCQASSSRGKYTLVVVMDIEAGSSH
Sequence of recombinant VCAM-1 (commercial preparation, R & D Systems), immobilized (P19320 25-698 limits assumed): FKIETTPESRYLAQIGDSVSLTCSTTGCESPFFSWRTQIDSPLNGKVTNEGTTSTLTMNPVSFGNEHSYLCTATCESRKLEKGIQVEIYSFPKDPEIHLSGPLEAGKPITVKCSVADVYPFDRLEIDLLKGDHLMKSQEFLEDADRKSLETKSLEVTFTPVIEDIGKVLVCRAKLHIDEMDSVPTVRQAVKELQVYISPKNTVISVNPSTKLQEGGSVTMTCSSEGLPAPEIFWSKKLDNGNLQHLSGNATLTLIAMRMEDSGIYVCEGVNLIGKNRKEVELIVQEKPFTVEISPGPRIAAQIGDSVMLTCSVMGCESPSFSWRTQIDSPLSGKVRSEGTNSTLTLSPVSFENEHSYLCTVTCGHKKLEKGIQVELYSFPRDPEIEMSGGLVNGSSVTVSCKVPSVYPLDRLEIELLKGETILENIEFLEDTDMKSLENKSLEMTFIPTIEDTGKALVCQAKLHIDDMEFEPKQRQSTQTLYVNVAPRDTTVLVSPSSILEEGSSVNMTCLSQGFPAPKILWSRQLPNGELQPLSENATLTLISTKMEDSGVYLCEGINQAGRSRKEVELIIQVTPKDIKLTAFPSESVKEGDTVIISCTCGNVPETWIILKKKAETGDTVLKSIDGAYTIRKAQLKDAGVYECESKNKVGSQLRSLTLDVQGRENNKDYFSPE

Turning to “human αd/CD18 heterodimer expressed on transfected cells (COS, CHO, JY) (from UniProt P05107 23-769) (receptor)”, the binding relative to wild-type VCAM-1 in assay [1] worked out at 50%.

On to “soluble human αd/CD18 leucine zipper heterodimer (from UniProt P05107 23-700) (receptor)”, for which the fold greater than background binding in assay [2] was 5 fold; with immobilized CD11b/CD18 it was 15 fold. This substance registered a fold greater than control well in assay [3] of 10 fold.

In the case of “α4 integrins on human eosinophils (from UniProt P13612 34-1032; P05556 21-798) (receptor)”, in assay [4], the binding rate of IL-5 cultured eosinophils to immobilized VCAM-1 in the presence of a monoclonal antibody against α4 stood at 18.1%.

The values are drawn from patent publication US20020062008A1.
